# Literature values, collected in US5593962A, “Fibrillated calcitonin pharmaceutical compositions” (Ciba-Geigy Corporation, priority 1991, dated 1997).
# Key:
# [1] = physiological saline solutions or buffers
substance,measurement,setting,value
human calcitonin,generation of neutralizing antibodies,after prolonged administration,not generating neutralizing antibodies
same,potency relative to salmon calcitonin,in vivo,less potent
same,stability in solution,[1],not stable
